Assay results: the RNAGym collection of RNA variant scans (doi:10.1073/pnas.2313332121)

B1: TPR t1 (parent)
chain: GACCAAUCUGCCCUCAGAGCUCGAGAACAUCUUCGGAUGCAGAGGAGGCAGGCUUCGGUGGCGCGAUAGCGCCAACGUCCUCAACCUCCAAUGCAUCCCACCACAUGAUGAUGCCUGAAGAGCCUUGGUUUUUUG

Variants of: B1
Assay: polymerase ribozyme fitness, log enrichment relative to wild type (log ratio); higher = more active; in vitro selection for triplet polymerase activity
In short: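 Each subunit of a heterodimeric triplet polymerase ribozyme was represented by a PCR-built, transcribed mutant library that underwent triplicate single-round in vitro selection with frozen incubation at −7 °C. Extended constructs were recovered by gel excision, streptavidin-bead capture and RT-PCR, and Illumina sequencing of input and output libraries kept genotypes with ≥10 input reads and ≥1 read per output. Fitness is the logarithm of genotype enrichment relative to wild-type enrichment, from inverse-variance-weighted replicate averages, with a logarithm base of 2.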

| Variant | polymerase ribozyme fitness (log ratio) |
| --- | --- |
| U33G A50G A121C | -4.43 |
| C34G G120C | -4.78 |
| C34A U78C | -2.79 |
| C34A G60A C72G C88U | -6.11 |
| C34U U59A U106A U109A G120A | -5.08 |
| U33A G58A | -5.07 |
| C34A C97A C115G | -4.43 |
| C34G A43G C53A G71A A111C C123G | -7.9 |
| C34U G71A | -5.88 |
| G35A C40G C98U C123G | -0.89 |
| C34G C79U | -5.43 |
| C34A C104U | -2.35 |
| C34A C62A | -4.45 |
| C34A G48A U59C C101A | -5.32 |
| C34G G51U C104U | -6.64 |
| C34G C53U C73U G113C C114G | -8.55 |
| C34G A46C U106A G110A U130G U131A | -5.46 |
| C34A C53A | -2.86 |
| G35A C53G C62U G77C A84C C124G G135C | -3.97 |
| U33A C72G | -5.17 |
| G35A C98G | -6.5 |

| Variant | polymerase ribozyme fitness (log ratio) |
| --- | --- |
| C34G G60A C70A A105U G117U U126A U129A U133G | -6.69 |
| C34G A41C C56A A66U C115A | -7.59 |
| U33A G52U U112A | -6.07 |
| U33G G39A C72G A84G A111U | -6.45 |
| C34A C73G G120A C124G U133A | -1.12 |
| U33G C70U G120U | -6.7 |
| C34A C123A | -2.18 |
| C34U G47A | -4.25 |
| C34A G61A U112A C115U | -6.79 |
| U33A C88U | -3.66 |
| U33C G60U | -3.44 |
| U33C G60C | -5.53 |
| C34G A111G U129G | -6.92 |
| C34G A83G | -6.49 |
| U33G G69A C70A A111U | -7.15 |
| U33G C124G | -4.16 |
| C34A A84U | -2.81 |
| C34U C101A | -4.07 |
| C34G C73A | -5.35 |
| U33A C104U U112A | -3.5 |
| C34G A37U U55G C72G U92C C124A | -5.91 |

| Variant | polymerase ribozyme fitness (log ratio) |
| --- | --- |
| C34U G113C | -4.95 |
| C34A C53G C56A | -2.83 |
| C34G C89U | -7.42 |
| C34A G69C | -4.71 |
| C34A G69U | -0.154 |
| U33G G39U A50U C70U A84U A91C C114A | -7.12 |
| G35A C64U U87G | -4.86 |
| C34A C88A U106C C114A | -6.05 |
| U33G U130A | -5.01 |
| C34G C40U | -6.15 |
| U33C A90C | -6.14 |
| U33C C99U C123A | -7.51 |
| C34G U106A | -4.72 |
| C34U C85A A111U | -5.33 |
| G35A C72U C98A G117U | -7.49 |
| C34U G63U | -4.85 |
| C34U G63A | -3.64 |
| U33A G47A A121U | -3.55 |
| C34U G63C A111C U132A | -4.98 |
| U33A C53A C62U | -5.53 |
| C34G U87A | -5.65 |

| Variant | polymerase ribozyme fitness (log ratio) |
| --- | --- |
| U33A C72G A74C G127C | -7.04 |
| C34A U54G C94U | -2.75 |
| U33G C34G C72G G110A | -6.68 |
| C34G G39A C56A G69U C79A A103U C104G G110A C115G | -7.05 |
| U33G U55A | -4.84 |
| U33G C94A G113C G117A | -6.01 |
| G35A A46U A83U U87C C104U | -4.09 |
| G35A G69U C101G | -2.83 |
| U33A G36C C72U | -4.02 |
| C34A G60A A103G C124U G135A | -5.23 |
| U33C C62U C99U C115U | -6.64 |
| G35A G52C C86U | -6.34 |
| U33C A46C | -6.49 |
| C34U U92A | -6.09 |
| C34U A50U | -3.8 |
| C34U G61A | -4.7 |
| U33G G52C C64G U78A C98A U112G U116G | -7.08 |
| G35A G69C U87G | -5.37 |
| U33A C64A G69C | -5.43 |
| C34A C89U G117U | -5.32 |
| C34A G48U A121U | -1.3 |
